Several values for one entry are separate records, joined by “and”; a condition that tells them apart may be missing. Equal values may be shown once.
What was measured:
hIGF1 = hIGF1 (human, UniProt P05019 49-118); assay: cell-based or functional assay
IGF2 = IGF2 (UniProt P01344 25-91); assay: cell-based or functional assay
PlGF = target: T1, PlGF (UniProt P49763-2 21-149, limits assumed); assay: direct bind ELISA, reference antibody
T1 construct: bought antigen coated on the ELISA plate; also called Placental GF
T1 sequence (looked up): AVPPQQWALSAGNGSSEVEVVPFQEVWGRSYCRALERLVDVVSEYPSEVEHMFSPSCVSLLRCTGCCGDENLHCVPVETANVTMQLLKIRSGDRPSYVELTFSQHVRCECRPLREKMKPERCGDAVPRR

HGF-His tag = target: T2, HGF-His tag (UniProt P14210 32-728); assay: direct bind ELISA (ref Ab)
T2 construct: Bought antigen coated on the ELISA plate; not shown: His tag
T2 sequence (P14210 32-728 limits assumed): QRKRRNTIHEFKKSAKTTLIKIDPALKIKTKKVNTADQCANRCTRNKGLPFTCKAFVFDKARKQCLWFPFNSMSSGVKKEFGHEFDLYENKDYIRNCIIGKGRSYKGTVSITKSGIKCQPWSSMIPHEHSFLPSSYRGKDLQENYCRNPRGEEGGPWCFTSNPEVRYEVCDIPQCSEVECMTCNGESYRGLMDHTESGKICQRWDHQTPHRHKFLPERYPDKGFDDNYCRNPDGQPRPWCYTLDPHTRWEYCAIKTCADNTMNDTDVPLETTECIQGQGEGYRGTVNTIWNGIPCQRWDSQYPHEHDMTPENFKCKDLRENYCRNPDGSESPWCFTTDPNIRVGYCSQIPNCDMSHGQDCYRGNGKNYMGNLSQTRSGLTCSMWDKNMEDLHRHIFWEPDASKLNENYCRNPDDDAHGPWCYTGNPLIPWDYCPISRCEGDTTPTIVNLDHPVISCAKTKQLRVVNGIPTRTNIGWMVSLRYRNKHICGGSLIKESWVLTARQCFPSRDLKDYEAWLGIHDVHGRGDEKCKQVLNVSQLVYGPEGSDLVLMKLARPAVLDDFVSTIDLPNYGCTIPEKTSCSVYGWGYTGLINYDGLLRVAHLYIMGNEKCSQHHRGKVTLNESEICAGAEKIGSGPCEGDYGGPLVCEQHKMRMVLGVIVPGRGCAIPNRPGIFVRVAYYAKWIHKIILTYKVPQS

biotinylated ErbB3 = biotinylated ErbB3 (UniProt P21860 20-643, limits assumed, biotinylated); assay: capture ELISA, antibody captured by anti-human IgG Fc, biotinylated ErbB3
Method: The plates were washed with PBS containing 0.05% Tween 20 three times and blocked with 200 μl/well of 1% BSA/PBS for 1 hour at room temperature. Fifty μl of 5 nM DVD-Ig or antibody were added to each well and incubated for 1 hour at room temperature. […] The wells were washed three times, and 100 μl of ULTRA-TMB ELISA (Pierce, Rockford, Ill.) were added per well.

[1] = target: T3, RON (MSP Receptor ECD-His tag) (UniProt Q04912 25-957, limits assumed); assay: Direct Bind ELISA, antigen on plate; N-terminal VD
T3 construct: extracellular domain; Bought reagent
Method: (§1) Enzyme Linked Immunosorbent Assays to screen for antibodies that bind a desired target antigen were performed as follows. […] Plates were washed four times with PBS containing 0.02% Tween 20. Plates were blocked by the addition of 300 μL/well blocking solution (non-fat dry milk powder, various retail suppliers, diluted to 2% in PBS) for ½ hour at room temperature. Plates were washed four times after blocking with PBS containing 0.02% Tween 20.
(§2) Alternatively, one hundred microliters per well of 10 μg/ml of Histidine (His) tagged desired target antigen (R&D Systems, Minneapolis, Minn.) was added to ELISA plates coated with monoclonal mouse anti-polyHistidine antibody as described above and incubated for 1 hour at room temperature. Wells were washed four times with PBS containing 0.02% Tween 20.
(§3) One hundred microliters of antibody or DVD-Ig preparations diluted in blocking solution as described above was added to the desired target antigen plate or desired target antigen/FC fusion plate or the anti-polyHistidine antibody/His tagged desired target antigen plate prepared as described above and incubated for 1 hour at room temperature. Wells are washed four times with PBS containing 0.02% Tween 20.

HGF (HGF-His tag) [2] = target: T4, HGF (HGF-His tag) (UniProt P14210 32-728); assay: Direct Bind ELISA, antigen on plate; C-terminal VD
T4 construct: Bought reagent
T4 sequence (P14210 32-728 limits assumed): as above
Method: as §1, §2, §3

HGF (HGF-His tag) [3] = target: T4, HGF (HGF-His tag); assay: Direct Bind ELISA, antigen on plate; N-terminal VD
Method: as §1, §2, §3

[4] = target: T3, RON (MSP Receptor ECD-His tag); assay: Direct Bind ELISA, antigen on plate; C-terminal VD
Method: as §1, §2, §3

B1: DVD041 (bispecific antibody, human IgG1, lambda)
heavy: not shown
light: DIQMTQSPSSLSASVGDRVTITCSASQDISNYLNWYQQKPGKAPKVLIYFTSSLHSGVPSRFSGSGSGTDFTLTISSLQPEDFATYYCQQYSTVPWTFGQGTKVEIKRTVAAPQSVLTQPPSVSAAPGQKVTISCSGSSSNIENNHVSWYQQLPGTAPKLLIYDNNKRPSGIPDRFSGSKSGTSATLGITGLQTGDEADYYCETWDTSLSAGRVFGGGTKLTVLGQPKAAPSVTLFPPSSEELQANKATLVCLISDFYPGAVTVAWKADSSPVKAGVETTTPSKQSNNKYAASSYLSLTPEQWKSHRSYSCQVTHEGSTVEKTVAPTECS
hIGF1
  C-terminal VD pIGF1R Cellular Assay (hIGF1 Neutralization IC50 nM): 16.8 nM
IGF2
  C-terminal VD pIGFR1 Cellular Assay (IGF2 induced IC50 nM): 1.5 nM

B2: AB047 (antibody, human IgG1, kappa, V domains shown)
VH: QVQLQQSGAELVKPGASVKISCKASGYTFTDYYINWVKLAPGQGLEWIGWIYPGSGNTKYNEKFKGKATLTIDTSSSTAYMQLSSLTSEDTAVYFCVRDSPFFDYWGQGTLLTVSS
VL: DIVLTQSPDSLAVSLGERVTMNCKSSQSLLNSGMRKSFLAWYQQKPGQSPKLLIYWASTRESGVPDRFTGSGSGTDFTLTISSVQAEDVAVYYCKQSYHLFTFGSGTKLEIKR
PlGF
  EC50: 0.13 nM and 0.14 nM and 0.17 nM

B3: AB012 (antibody, human IgG1, kappa, V domains shown)
VH: QVQLVESGGGLVKPGGSLRLSCAASGFTFSDYYMSWIRQAPGKGLEWVSYISSSGSTIYYADSVKGRFTISRDNAKNSLYLQMNSLRAEDTAVYYCARDEYNSGWYVLFDYWGQGTLVTVSS
VL: DIQMTQSPSSVSASVGDRVTITCRASQGISSWLAWYQQKPGKAPNLLIYEASSLQSGVPSRFGGSGSGTDFTLTISSLQPEDFATYYCQQANGFPWTFGQGTKVEIKR
notes: Vectors V1/V2
HGF-His tag
  EC50: 0.15 nM and 0.17 nM and 0.16 nM

B4: AB079 (antibody, human IgG1, kappa, V domains shown)
VH: EVQLVQSGAEVKKPGESLKISCKGSGYSFTTYWMHWVRQMPGKGLEWMGEINPTNGHTNYNPSFQGQVTISADKSISTAYLQWSSLKASDTAMYYCARNYVGSIFDYWGQGTLVTVSS
VL: DIQMTQSPSSLSASVGDRVTITCKASENVVSYVSWYQQKPGKAPKLLIYGASNRNTGVPSRFSGSGSGTDFTLTISSLQPEDFATYYCGQSYNYPYTFGQGTKLEIKR
notes: Vectors V1/V2
HGF-His tag
  EC50: 0.48 nM and 0.39 nM and 0.4 nM and 0.41 nM

B5: AB062 (antibody, human IgG1, kappa, V domains shown)
VH: QVQLQQWGAGLLKPSETLSLTCAVYGGSFSGYYWSWIRQPPGKGLEWIGEINHSGSTNYNPSLKSRVTISVETSKNQFSLKLSSVTAADTAVYYCARDKWTWYFDLWGRGTLVTVSS
VL: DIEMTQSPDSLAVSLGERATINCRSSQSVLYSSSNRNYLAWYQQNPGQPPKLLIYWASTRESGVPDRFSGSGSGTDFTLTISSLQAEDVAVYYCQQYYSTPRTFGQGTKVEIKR
Biotinylated ErbB3
  EC50: 0.26 nM

B6: AB063 (antibody, human IgG1, kappa, V domains shown)
VH: EVQLVESGGGLVQPGGSLRLSCAASGFTFSIYSMNWVRQAPGKGLEWVSYISSSSSTIYYADSVKGRFTISRDNAKNSLYLQMNSLRDEDTAVYYCARDRGDFDAFDIWGQGTMVTVSS
VL: DIQMTQSPSSLSASVGDRVTITCQASQDITNYLNWYQQKPGKAPKLLIYDASNLETGVPSRFSGSGSGTDFTFTISSLQPEDIATYNCQQCENFPITFGQGTRLEIKR
Biotinylated ErbB3
  EC50: 0.67 nM

B7: DVD033 (RON (seq. 1) and HGF (seq. 1) DVD-Ig) (bispecific antibody, IgG1)
VH: EVQLVQSGGGLVKPGGSLRLSCAASGFTFSSYAMHWVRQAPGKGLEWVAVISYDGSNKYYADSVKGRFTISRDNSKNTLYLQMNSLRAEDTAVYYCARFSGWPNNYYYYGMDVWGQGTTVTVSSASTKGPQVQLVESGGGLVKPGGSLRLSCAASGFTFSDYYMSWIRQAPGKGLEWVSYISSSGSTIYYADSVKGRFTISRDNAKNSLYLQMNSLRAEDTAVYYCARDEYNSGWYVLFDYWGQGTLVTVSS
VL: DVVMTQSPLSLPVTPGEPASISCRSSQSLLHSNGFNYVDWYLQKPGQSPHLLIYFGSYRASGVPDRFSGSGSGTDFTLKISRVEAEDVGVYYCMQALQTPPWTFGQGTKVEIRRTVAAPDIQMTQSPSSVSASVGDRVTITCRASQGISSWLAWYQQKPGKAPNLLIYEASSLQSGVPSRFGGSGSGTDFTLTISSLQPEDFATYYCQQANGFPWTFGQGTKVEIKR
notes: Outer AB005, inner AB012; HC vector V1 (wild-type hIgG1 constant), LC vector V2 (kappa constant); also called DVD033H; DVD033L
[1]
  EC50: 0.22 nM
HGF (HGF-His tag) [2]
  EC50: 11.9 nM

B8: DVD034 (HGF (seq. 1) and RON (seq. 1) DVD-Ig) (bispecific antibody, IgG1)
VH: QVQLVESGGGLVKPGGSLRLSCAASGFTFSDYYMSWIRQAPGKGLEWVSYISSSGSTIYYADSVKGRFTISRDNAKNSLYLQMNSLRAEDTAVYYCARDEYNSGWYVLFDYWGQGTLVTVSSASTKGPEVQLVQSGGGLVKPGGSLRLSCAASGFTFSSYAMHWVRQAPGKGLEWVAVISYDGSNKYYADSVKGRFTISRDNSKNTLYLQMNSLRAEDTAVYYCARFSGWPNNYYYYGMDVWGQGTTVTVSS
VL: DIQMTQSPSSVSASVGDRVTITCRASQGISSWLAWYQQKPGKAPNLLIYEASSLQSGVPSRFGGSGSGTDFTLTISSLQPEDFATYYCQQANGFPWTFGQGTKVEIKRTVAAPDVVMTQSPLSLPVTPGEPASISCRSSQSLLHSNGFNYVDWYLQKPGQSPHLLIYFGSYRASGVPDRFSGSGSGTDFTLKISRVEAEDVGVYYCMQALQTPPWTFGQGTKVEIRR
notes: Outer AB012, inner AB005; HC vector V1 (wild-type hIgG1 constant), LC vector V2 (kappa constant); also called DVD034L
HGF (HGF-His tag) [3]
  EC50: 0.27 nM
[4]
  EC50: 116 nM

B9: DVD045 (VEGF (seq. 1) and HGF (seq. 1) DVD-Ig) (bispecific antibody, IgG1)
VH: EVQLVESGGGLVQPGGSLRLSCAASGYTFTNYGMNWVRQAPGKGLEWVGWINTYTGEPTYAADFKRRFTFSLDTSKSTAYLQMNSLRAEDTAVYYCAKYPHYYGSSHWYFDVWGQGTLVTVSSASTKGPQVQLVESGGGLVKPGGSLRLSCAASGFTFSDYYMSWIRQAPGKGLEWVSYISSSGSTIYYADSVKGRFTISRDNAKNSLYLQMNSLRAEDTAVYYCARDEYNSGWYVLFDYWGQGTLVTVSS
VL: DIQMTQSPSSLSASVGDRVTITCSASQDISNYLNWYQQKPGKAPKVLIYFTSSLHSGVPSRFSGSGSGTDFTLTISSLQPEDFATYYCQQYSTVPWTFGQGTKVEIKRTVAAPDIQMTQSPSSVSASVGDRVTITCRASQGISSWLAWYQQKPGKAPNLLIYEASSLQSGVPSRFGGSGSGTDFTLTISSLQPEDFATYYCQQANGFPWTFGQGTKVEIKR
notes: HC vector V1 (wild-type hIgG1 constant), LC vector V2 (kappa constant); also called DVD045H; DVD045L
HGF (HGF-His tag) [2]
  EC50: 185 nM

B10: DVD046 (HGF (seq. 1) and VEGF (seq. 1) DVD-Ig) (bispecific antibody, IgG1)
VH: QVQLVESGGGLVKPGGSLRLSCAASGFTFSDYYMSWIRQAPGKGLEWVSYISSSGSTIYYADSVKGRFTISRDNAKNSLYLQMNSLRAEDTAVYYCARDEYNSGWYVLFDYWGQGTLVTVSSASTKGPEVQLVESGGGLVQPGGSLRLSCAASGYTFTNYGMNWVRQAPGKGLEWVGWINTYTGEPTYAADFKRRFTFSLDTSKSTAYLQMNSLRAEDTAVYYCAKYPHYYGSSHWYFDVWGQGTLVTVSS
VL: DIQMTQSPSSVSASVGDRVTITCRASQGISSWLAWYQQKPGKAPNLLIYEASSLQSGVPSRFGGSGSGTDFTLTISSLQPEDFATYYCQQANGFPWTFGQGTKVEIKRTVAAPDIQMTQSPSSLSASVGDRVTITCSASQDISNYLNWYQQKPGKAPKVLIYFTSSLHSGVPSRFSGSGSGTDFTLTISSLQPEDFATYYCQQYSTVPWTFGQGTKVEIKR
notes: HC vector V1 (wild-type hIgG1 constant), LC vector V2 (kappa constant); also called DVD046L
HGF (HGF-His tag) [3]
  EC50: 0.5 nM

B11: DVD047 (VEGF (seq. 1) and RON (seq. 1) DVD-Ig) (bispecific antibody, IgG1)
VH: EVQLVESGGGLVQPGGSLRLSCAASGYTFTNYGMNWVRQAPGKGLEWVGWINTYTGEPTYAADFKRRFTFSLDTSKSTAYLQMNSLRAEDTAVYYCAKYPHYYGSSHWYFDVWGQGTLVTVSSASTKGPEVQLVQSGGGLVKPGGSLRLSCAASGFTFSSYAMHWVRQAPGKGLEWVAVISYDGSNKYYADSVKGRFTISRDNSKNTLYLQMNSLRAEDTAVYYCARFSGWPNNYYYYGMDVWGQGTTVTVSS
VL: DIQMTQSPSSLSASVGDRVTITCSASQDISNYLNWYQQKPGKAPKVLIYFTSSLHSGVPSRFSGSGSGTDFTLTISSLQPEDFATYYCQQYSTVPWTFGQGTKVEIKRTVAAPDVVMTQSPLSLPVTPGEPASISCRSSQSLLHSNGFNYVDWYLQKPGQSPHLLIYFGSYRASGVPDRFSGSGSGTDFTLKISRVEAEDVGVYYCMQALQTPPWTFGQGTKVEIRR
notes: HC vector V1 (wild-type hIgG1 constant), LC vector V2 (kappa constant); also called DVD047H; DVD047L
[4]
  EC50: 94.8 nM

B12: DVD048 (RON (seq. 1) and VEGF (seq. 1) DVD-Ig) (bispecific antibody, IgG1)
VH: EVQLVQSGGGLVKPGGSLRLSCAASGFTFSSYAMHWVRQAPGKGLEWVAVISYDGSNKYYADSVKGRFTISRDNSKNTLYLQMNSLRAEDTAVYYCARFSGWPNNYYYYGMDVWGQGTTVTVSSASTKGPEVQLVESGGGLVQPGGSLRLSCAASGYTFTNYGMNWVRQAPGKGLEWVGWINTYTGEPTYAADFKRRFTFSLDTSKSTAYLQMNSLRAEDTAVYYCAKYPHYYGSSHWYFDVWGQGTLVTVSS
VL: DVVMTQSPLSLPVTPGEPASISCRSSQSLLHSNGFNYVDWYLQKPGQSPHLLIYFGSYRASGVPDRFSGSGSGTDFTLKISRVEAEDVGVYYCMQALQTPPWTFGQGTKVEIRRTVAAPDIQMTQSPSSLSASVGDRVTITCSASQDISNYLNWYQQKPGKAPKVLIYFTSSLHSGVPSRFSGSGSGTDFTLTISSLQPEDFATYYCQQYSTVPWTFGQGTKVEIKR
notes: HC vector V1 (wild-type hIgG1 constant), LC vector V2 (kappa constant); also called DVD048H; DVD048L
[1]
  EC50: 0.46 nM

B13: AB074 (antibody, human IgG1, kappa, V domains shown)
VH: QVQLKQSGPGLVQPSQSLSITCTVSGFSLTTYGIHWVRQSPGKGLEWLGVMWSGGDTDYDAAFISRLSISKDNSKSQVFFKMNSLQANDTGIYYCARYRFYGMDYWGQGTSVTVSS
VL: AIQMTQSSSSFSVSLGDRVTITCKASEDIYNRFAWYQQKPGNAPRLLISGAASLEAGVPSRFSGSGSGQDYTLSITSLQTEDVATYYCQQYWSTPWTFGGGTKLEIKR
PlGF
  EC50: 0.49 nM

— patent US20100260668A1 (published 2010)
